Laboratory results published in paper PMC9045395, “Assembly and Functional Role of PACE Transporter PA2880 from Pseudomonas aeruginosa” (Microbiology Spectrum, 2022).
Positions count from the first letter of the chain named. Names and notes keep the numbering of the source.

Columns and labels:
[1] = target: T1, PA2880 (Pseudomonas aeruginosa, UniProt Q9HZW7); assay: native mass spectrometry (LILBID-MS); details: 200 mM ammonium acetate, 0.02% DDM; binding increases dimer population; proton-coupled transport substrate
T1 construct: full length, C-terminal TEV site, eGFP (A206K) and Strep-tag; also tested without eGFP in native MS; expressed in Pseudomonas stutzeri; purified in DDM; dimer

[2] = target: the molecule itself; assay: native MS; LILBID-MS; protein in 200 mM ammonium acetate with 0.02% (wt/vol) DDM, pH 8; monomer to dimer; some samples with chlorhexidine up to a substrate/protein molar ratio of 8 (more dimer)
[3] = target: the molecule itself; assay: native MS
[4] = target: the molecule itself; assay: native MS; LILBID-MS; protein in 200 mM ammonium acetate with 0.02% (wt/vol) DDM, pH series from 5 to 9; monomer to dimer; dimer ratio from deconvoluted zero-charge spectra

With N=C(NCCCCCCNC(=N)NC(=N)Nc1ccc(Cl)cc1)NC(=N)Nc1ccc(Cl)cc1 [chlorhexidine] the “native mass spectrometry (LILBID-MS)” value [1] was “The LILIBID-MS results showed that chlorhexidine was bound to PA2880”.

B1: PA2880 fused with enhanced green fluorescent protein (PA2880-eGFP), wild type (natural protein)
chain: MTIQPDFNDEPGAFAMTHTHTALDKTLKERIFHALAFEGLAVLLTAPVLSLVMNKPLAHMGALTLMFSTVAMLWNMLFNSLFDRAQRRMGFQRTLQVRVLHAMLFELGLIVVLVPLAAWWLSIGLVEAFLLDMGLILFFLPYTMAFNWSYDVLRARLVESRQAKAAGCDAG
notes: also called wt; wild-type PA2880 with fused eGFP; source: Pseudomonas stutzeri (pL2020-PA2880-eGFP), purified (Strep XT column, SEC, in DDM); not shown: eGFP (A206K variant), C-terminal, kept
B1 was tested, and the “stoichiometry N” value [2] was 2.

B2: wild-type PA2880 without fused eGFP (natural protein)
chain: B1 chain
notes: also called PA2880 without eGFP
For B2, the “stoichiometry N” value [3] was 2.

B3: PA2880 E38Q variant (natural protein, Pseudomonas aeruginosa strain PAO1, UniProt Q9HZW7 1-171, looked up)
chain: B1 chain with E38Q
notes: PACE family transporter PA2880 of Pseudomonas aeruginosa strain PAO1 with E38Q; source: purified; not shown: eGFP (A206K variant), C-terminal, kept
With B3 the “stoichiometry N” value [4] was 2.
